In paper PMC10682658, “Revisiting bacterial cytolethal distending toxin structure and function” (Frontiers in Cellular and Infection Microbiology, 2023):

T1: NTA-labeled Cj-CdtA (polyhistidine-tagged Cj-CdtA labelled with NTA fluorescent dye) (Campylobacter jejuni, UniProt A1VXG4 20-268, NTA - Atto 647 N dye on the polyhistidine-tagged subunit)
T1 construct: source: recombinant, generated and purified as previously described (Eshraghi et al., 2010)
T1 sequence: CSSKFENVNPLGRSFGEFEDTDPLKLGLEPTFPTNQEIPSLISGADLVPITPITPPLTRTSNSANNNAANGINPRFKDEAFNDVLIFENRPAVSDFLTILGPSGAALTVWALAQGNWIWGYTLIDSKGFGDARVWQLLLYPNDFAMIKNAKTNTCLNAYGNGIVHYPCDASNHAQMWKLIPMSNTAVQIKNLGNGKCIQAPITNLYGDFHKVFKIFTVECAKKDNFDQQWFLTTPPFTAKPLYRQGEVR

B1: unlabeled Cj-CdtC with the polyhistidine tag removed (natural protein)
chain: TPTGDLKDFTEMVSIRSLETGIFLSAFRDTSKDPIDQNWNIKEIVLSDELKQKDKLADELPFGYVQFTNPKESDLCLAILEDGTFGAKSCQDDLKDGKLETVFSIMPTTTSAVQIRSLVLESDECIVTFFNPNIPIQKRFGIAPCTLDPIFFAEVNELMIITPPLTAATPLE
notes: source: recombinant, generated and purified as previously described (Eshraghi et al., 2010); polyhistidine removed with biotinylated thrombin
B2: unlabeled Cj-CdtA with the polyhistidine tag removed (natural protein)
chain: CSSKFENVNPLGRSFGEFEDTDPLKLGLEPTFPTNQEIPSLISGADLVPITPITPPLTRTSNSANNNAANGINPRFKDEAFNDVLIFENRPAVSDFLTILGPSGAALTVWALAQGNWIWGYTLIDSKGFGDARVWQLLLYPNDFAMIKNAKTNTCLNAYGNGIVHYPCDASNHAQMWKLIPMSNTAVQIKNLGNGKCIQAPITNLYGDFHKVFKIFTVECAKKDNFDQQWFLTTPPFTAKPLYRQGEVR
notes: as for B1

How the values were obtained:
[1] = target: T2, NTA-labeled Cj-CdtB (polyhistidine-tagged Cj-CdtB labelled with NTA fluorescent dye) (Campylobacter jejuni, UniProt Q0PC57 1-265, NTA - Atto 647 N dye on the polyhistidine-tagged subunit); experiment: MST; NTA dye-labeled polyhistidine-tagged subunit (0.1 μM) with unlabeled subunit without polyhistidine tag (0.02/0.04-20 μM), 1 h at 37°C, read at 37°C; Monolith NT.115; fraction bound fit to log [Cj-CDT subunit] vs response; KD of A + B* called apparent; details: both partners purified
T2 construct: source: recombinant, generated and purified as previously described (Eshraghi et al., 2010)

[2] = target: T1, NTA-labeled Cj-CdtA …; experiment: as above; details: both partners purified

Row | Binder | Kd [1] | first concentration of titrant yielding detectable signal above background [1] | Kd [2] | first concentration of titrant yielding detectable signal above background [2]
1 | B1 | 480 ± 100 nM | 0.15 µM | 650 ± 100 nM | 0.31 µM
2 | B2 | > 20000 nM | 2 µM | – | –
